In US8110660B2, “Soluble ENPP4 protein” (Ono Pharmaceutical Co., Ltd., priority 2004, dated 2012):

Key:
Type in all cases: biochemical
[1] = PDE/PME activity of soluble type ENPP proteins (pNP-PP or bis-pNPP degradation); settings: 0.2 μg protein, 1 mM pNP-PP (ENPP6 also bis-pNPP), pH 9.6, 37° C., 90 min, FIG. 8
Protocol: (§1) 0.2 μg of the purified soluble type ENPP4 protein was mixed in 90 μL of assay buffer (20 mM HEPES, 140 mM NaCl, 5 mM KCl, 1 mM CaCl2, 1 mM MgCl2, 10 mM Glucose, pH 9.6) and 10 μL of 10 mM p-nitrophenyl phenylphosphonate (pNP-PP, manufactured by Sigma Inc.), and was kept at 37° C. for 90 min and then, absorption of light of 405 nm was measured and thereby, the amount of P-nitrophenol was quantitatively determined and, whether the PDE/PME activity existed or not was examined.
as §1, with “ENPP5” for “ENPP4”, “pNP-PP,” for “p-nitrophenyl phenylphosphonate (pNP-PP, manufactured by Sigma Inc.),”, “p-nitrophenol” for “P-nitrophenol”
as §1, with “ENPP6” for “ENPP4”, “pNP-PP or bis-(p-nitrophenyl)phosphate (bis-pNPP),” for “p-nitrophenyl phenylphosphonate (pNP-PP, manufactured by Sigma Inc.),”, “p-nitrophenol” for “P-nitrophenol”

[2] = Bivalent cation requirement of soluble type ENPP proteins (PDE/PME activity); settings: MgCl2 and CaCl2 1 mM vs no additive vs EDTA 1 mM, pNP-PP, FIG. 9
Protocol: (§2) 0.2 μg of the purified soluble type ENPP4 protein was mixed in 90 μL of assay buffer (20 mM HEPES, 140 mM NaCl, 5 mM KCl, 10 mM Glucose, pH 9.6), 10 μL of 10 mM pNP-PP, and (1) 1 mM final concentration of MgCl2 and CaCl2, (2) no additive, or (3) 1 mM final concentration of EDTA, and then was kept at 37° C. for 90 min and then, absorption of light of 405 nm was measured and thereby, the increase or decrease of the PDE/PME activity by removing bivalent cations was examined.
as §2, with “ENPP5” for “ENPP4”, “examined. […] It has been thought that a certain cation except for calcium and magnesium ions is bonded to the purified soluble type ENPP5 protein because the activity decreases in the EDTA-adding sample and increases in the no-additive sample. […]” for “examined.”

[3] = NPP/PDE activity of soluble type ENPP proteins (pNP-TMP degradation, 405 nm); settings: 1 mM pNP-TMP, pH 9.6, 37° C., 2 hours, absorption at 405 nm
Protocol: 400 mL of the culture supernatant of the cells expressing the soluble type human ENPP4 protein was concentrated at 8 times by using Amicon Ultra-15 (fraction molecular weight 10,000, manufactured by Millipore Inc.). The His-Tag-added protein was affinity-purified by using AKTAexplorer 10S (manufactured by Amersham Biosciences Inc.) and His-Trap column (manufactured by Amersham Biosciences Inc.). Samples in the respective purification steps were subjected to SDS-PAGE according to a predetermined method and then the protein was stained by using Simply-Blue-Stain (manufactured by Invitrogen Inc.). […] 40 μL of each of the respective purification steps and purified soluble type human ENPP4-FLAG-His proteins was mixed with 50 μL of assay buffer (20 mM HEPES, 140 mM NaCl, 5 mM KCl, 1 mM CaCl2, 1 mM MgCl2, 10 mM Glucose, pH 9.6, the method of Voltmeter P. et al., Eur. J. Biochem. 270 (2003) 2971-78 was improved) and 10 μL of 10 mM p-nitrophenyl-Thymidine monophosphate (pNP-TMP, Sigma Inc.), and the mixture was kept at 37° C. for 2 hours and then, absorption of light of 405 nm was measured and thereby, p-nitorphenol, which was a degradation product, was measured and, whether the Nucleotide Pyrophosphatase (NPP)/Phospho-Diesterase (PDE) activity existed or not was examined. […]

B1: soluble type ENPP4 protein: extracellular region of human ENPP4 with FLAG tag and 6×His tag at the C terminal, expressed in HEK293T cells, purified (protein, UniProt Q9Y6X5 16-407, looked up)
extracellular domain: FRSDSSSSLPPKLLLVSFDGFRADYLKNYEFPHLQNFIKEGVLVEHVKNVFITKTFPNHYSIVTGLYEESHGIVANSMYDAVTKKHFSDSNDKDPFWWNEAVPIWVTNQLQENRSSAAAMWPGTDVPIHDTISSYFMNYNSSVSFEERLNNITMWLNNSNPPVTFATLYWEEPDASGHKYGPEDKENMSRVLKKIDDLIGDLVQRLKMLGLWENLNVIITSDHGMTQCSQDRLINLDSCIDHSYYTLIDLSPVAAILPKINRTEVYNKLKNCSPHMNVYLKEDIPNRFYYQHNDRIQPIILVADEGWTIVLNESSQKLGDHGYDNSLPSMHPFLAAHGPAFHKGYKHSTINIVDIYPMMCHILGLKPHPNNGTFGHTKCLLVDQWCINLPEA
modifications: extracellular domain C-terminal FLAG and 6xHis tags
notes: extracellular region of human ENPP4 with FLAG tag and 6×His tag at the C terminal, expressed in HEK293T cells, purified
PDE/PME activity [1]: has the PDE/PME activity | bivalent cation requirement [2]: does not require bivalent cations | NPP/PDE activity [3]: NPP/PDE activity was detected
